Assay: soluble on expression in E. coli; label from the status in PepcDB or PDB records

Row | Sequence | soluble on expression in E. coli
1 | MKKLKMKKLISLLLTLTMILALTACGAKETGKSQDESDLNYVKSKGKLIIGYTNYAPMNYTDENGVFTGFDTELAILTCEKLGVEPEFVEINWDTKEVELNAKSIDCIWNGLTIDDDRKAKMEITQPYVKNAQVVLVKEGTEYNGTESLIGKTVVAEQSSAGEKTIMADENLKKANYVPKTLQTDCLMELKSGTADAAVLDLTLAKTMTGEGTSYEDIVIVDYLAEENYGVAFRKGSDICAEVNKIFDDFLADGTMAALAEKYGLELAE | not soluble
2 | MKKLTKGLGILLASSLVLGLAACGGGSDDKALSTEKITIGTTAGPHQQIAEEVQKLAKKDGLEIKIKTFDDYNTPNTALNDGDLDANNYQTIPFLEQQKKDKGYKLDVAFKTVAFPMGIYSNDIKDLKNLKKGDKIAVPNDPSNEYRGLKLFEDAGVIKLKDGVEEKATKKDIAENPLDLEIVELEASQIPAQLDEVAAAAINTNFAMGAGLSINKDAIYHEPTKDNPYPNVFVVRSANKDDEVVKTLEKYYHSDEVKAFIEKEFNGSVVPAFLEHHHHHH | soluble
3 | MKKMLTFLTTCALSFGVSAQSWEETTEKARGQTVYFHAWGGSQEINSYLRWSADLLKSRYGVTLQHVKVTDIAETTTRLIAEKAAGKNEQGSVDLVWINGENFKSMKNNQLLYGPFVEDLPNWPKVDKSLPVDSDFSEPTEGLEAPWGVGQLVFIHDKQQVNNPPASFAELLSYAQAFPNRISYPQPPEFHGTSFLKAALIELTHYAPELNQAVEPATFEQLTQPLWQYLDELHAVAWRKGKQFPAGSAQMMQLLDDGQLDLAITFNPNAVFSAQATGKLAPTAQSYAMKKGALTNIHFLAIPWNANAKEGALVAINFLLSDEAQSRKGDLSIWGDPSILKPQFLTGSAKNTILFPAIAEPHPSWQSALEAEWQKRYGNSLK | not soluble
4 | MKKSLKQKIVSSLLAVSLAVSLAPIGQANADSTSEIKQTSSITKQVDASRAIEHIRFLSETIGPRPGGTKSEEWASRYVGMQLKSMGYEVEYQPFQVPDQYVGFIESPLSTKRNWQTGAAPNALISTESVTAPLIFVQGGTKLEDIPNEVNGKIVLFERGTTVADYNKQVENAVSKGAKGVLLYSLIGGRGNYGQTFNPRLTKKQSIPVFGLAYAQGNAFKEEIAKKGTTILSLKARHESNLTSLNVIAKKKPKNSTGNEKAVVVSSHYDSVVGAPGANDNASGTGLVLELARAFQNVETDKEIRFIAFGSEETGLLGSDYYVNSLSPKERDRILGVFNADMVATNYDKAKNLYAMMPNGSPNLVTDAALQAGKQLNNDLVLQGKFGSSDHVPFAEVGIPAALFIWMGVDSWNPLIYHIEKVYHTPQDNVFENISPERMKMALEVIGTGVYNTLQQSVTQTEQKAA | not soluble
5 | MKKVIIAGNGPSLKEIDYSRLPNDFDVFRCNQFYFEDKYYLGKKCKAVFYNPSLFFEQYYTLKHLIQNQEYETELIMCSNYNQAHLENENFVKTFYDYFPDAHLGYDFFKQLKDFNAYFKFHEIQFNQRITSGVYMCAVAIALGYKEIYLSGIDFYQNGSSYAFDTKQKNLLKLAPNFKNDNSHYIGHSKNTDIKALEFLEKTYKIKLYCLCPNSLLANFIGLAPNLNSNFIIQEKNNYTKDILIPSSEAYGKFSKNINFKKIKIKENIYYKLIKDLLRLPSDIKHYFKGK | soluble
6 | MKKVLIANRGEIAVRIIRACRDLGIQTVAIYSEGDKDALHTQIADEAYCVGPTLSKDSYLNIPNILSIATSTGCDGVHPGYGFLAENADFAELCEACQLKFIGPSYQSIQKMGIKDVAKAEMIKANVPVVPGSDGLMKDVSEAKKIAKKIGYPVIIKATAGGGGKGIRVARDEKELETGFRMTEQEAQTAFGNGGLYMEKFIENFRHIEIQIVGDSYGNVIHLGERDCTIQRRMQKLVEEAPSPILDDETRREMGNAAVRAAKAVNYENAGTIEFIYDLNDNKFYFMEMNTRIQVEHPVTEMVTGIDLVKLQLQVAMGDVLPYKQEDIKLTGHAIEFRINAENPYKNFMPSPGKIEQYLAPGGYGVRIESACYTNYTIPPYYDSMVAKLIIHEPTRDEAIMAGIRALSEFVVLGIDTTIPFHIKLLNNDIFRSGKFNTNFLEQNSIMNDEG | soluble
7 | MKKVLITGFEPFGGDSKNPTEQIAKYFDRKQIGNAMVYGRVLPVSVKRATIELKRYLEEIKPEIVINLGLAPTYSNITVERIAVNIIDARIPDNDGYQPIDEKIEEDAPLAYMATLPVRAITKTLRDNGIPATISYSAGTYLCNYVMFKTLHFSKIEGYPLKAGFIHVPYTPDQVVNKFFLLGKNTPSMCLEAEIKAIELAVKVSLDYLEKDRDDIKIPL | soluble

Source: the DeepSol protein solubility set
